{
  "source": "paper doi:10.1101/2022.01.15.476311",
  "target": "Toll-like receptor 2 (TLR2) purified protein (UniProt O60603)",
  "sequence (O60603 21-588)": "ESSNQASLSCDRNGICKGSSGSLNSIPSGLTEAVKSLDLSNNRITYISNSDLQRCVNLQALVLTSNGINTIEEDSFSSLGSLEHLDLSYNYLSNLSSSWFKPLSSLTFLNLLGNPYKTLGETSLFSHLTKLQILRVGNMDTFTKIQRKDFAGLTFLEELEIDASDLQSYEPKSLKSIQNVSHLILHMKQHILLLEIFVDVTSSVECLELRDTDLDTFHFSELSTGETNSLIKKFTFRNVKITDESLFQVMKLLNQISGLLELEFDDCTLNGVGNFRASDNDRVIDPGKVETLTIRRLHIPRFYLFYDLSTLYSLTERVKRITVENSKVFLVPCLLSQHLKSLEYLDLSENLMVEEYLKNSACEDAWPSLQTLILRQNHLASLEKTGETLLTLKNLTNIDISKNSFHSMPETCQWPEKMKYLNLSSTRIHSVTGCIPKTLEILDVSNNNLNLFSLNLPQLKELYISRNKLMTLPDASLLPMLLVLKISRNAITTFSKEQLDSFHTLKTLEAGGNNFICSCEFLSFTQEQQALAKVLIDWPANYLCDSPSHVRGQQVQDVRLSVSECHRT",
  "assay": "BLI",
  "data": [
    {"substance": "PAM3CSK4 (peptide)", "values": [
      {"measurement": "Kd", "value": 1670, "unit": "nM"}
    ]}
  ]
}
